Experimental data published in patent US20080249083.

T1: amyloid β(3-11)
T1 chain: EFRHDSGYE

B1: YSShisoQCI55NC351A C-His (human isoQC expressed in P. pastoris) (protein)
chain: FYTIWSGWHRRTEELPLGRELRVPLNGSLPEARLRRVVGQLDPQRLWSTYLRPLLVVRTPGSPGNLQVRKFLEATLRSLTAGWHVELDPFTASTPLGPVDFGNVVATLDPRAARHLTLACHYDSKLFPPGSTPFVGATDSAVPCALLLELAQALDLELSRAKKQAAPVTLQLLFLDGEEALKEWGPKDSLYGSRHLAQLMESIPHSPGPTRIQAIELFMLLDLLGAPNPTFYSHFPRTVRWFHRLRSIEKRLHRLNLLQSHPQEVMYFQPGEPFGSVEDDHIPFLRRGVPVLHLISTPFPAVWHTPADTEVNLHPPTVHNLARILAVFLAEYLGLHHHHHH
B2: human QC (glutaminyl cyclase, QPCT) (protein)
chain: VSPSASAWPEEKNYHQPAILNSSALRQIAEGTSISEMWQNDLQPLLIERYPGSPGSYAARQHIMQRIQRLQADWVLEIDTFLSQTPYGYRSFSNIISTLNPTAKRHLVLACHYDSKYFSHWNNRVFVGATDSAVPCAMMLELARALDKKLLSLKTVSDSKPDLSLQLIFFDGEEAFLHWSPQDSLYGSRHLAAKMASTPHPPGARGTSQLHGMDLLVLLDLIGAPNPTFPNFFPNSARWFERLQAIEHELHELGLLKDHSLEGRYFQNYSYGGVIQDDHIPFLRRGVPVLHLIPSPFPEVWHTMDDNEENLDESTIDNLNKILQVFVLEYLHL

Target: T1, amyloid β(3-11)

| Protein | conversion of Aβ(3-11) into pGlu-Aβ(3-11), Maldi-Tof mass spectrometry |
| --- | --- |
| B1 | human QC and human isoQC (YSShisoQCI55NC351A C-His) catalyze the conversion of Aβ(3-11) into pGlu-Aβ(3-11); the conversion of N-terminal glutamic acid by hisoQC is much slower compared with hQC |
| B2 | human QC and human isoQC (YSShisoQCI55NC351A C-His) catalyze the conversion of Aβ(3-11) into pGlu-Aβ(3-11) |
